Data: PMC7485978, “A tyrosine phosphoregulatory system controls exopolysaccharide biosynthesis and biofilm formation in Vibrio cholerae” (PLoS Pathogens, 2020)

Assays:
[1] = molecular target: VpsO-503^(E519A, R522A, R525A) kinase domain; assay: SEC-MALS; 25 uL of each VpsO protein at 1.5 mg/mL injected on a silica-based SEC analytical HPLC column; 25 mM Tris pH 8.0, 50 mM NaCl, 1 mM DTT; room temperature
[2] = molecular target: VpsU, low-molecular-weight phosphotyrosine protein phosphatase; assay: SEC

| Substance | stoichiometry N [1] | stoichiometry N [2] |
| --- | --- | --- |
| VpsO-503^(E519A, R522A, R525A) kinase domain (domain or fragment) | 2 | – |
| VpsU, low-molecular-weight phosphotyrosine protein phosphatase (enzyme) | – | 2 |
